# Assay results as given in IntAct's records for PubMed 23972470.
# B1: Serine/threonine-protein kinase 3 (Homo sapiens), Q13188 (parent)
# chain: MEQPPAPKSKLKKLSEDSLTKQPEEVFDVLEKLGEGSYGSVFKAIHKESGQVVAIKQVPVESDLQEIIKEISIMQQCDSPYVVKYYGSYFKNTDLWIVMEYCGAGSVSDIIRLRNKTLIEDEIATILKSTLKGLEYLHFMRKIHRDIKAGNILLNTEGHAKLADFGVAGQLTDTMAKRNTVIGTPFWMAPEVIQEIGYNCVADIWSLGITSIEMAEGKPPYADIHPMRAIFMIPTNPPPTFRKPELWSDDFTDFVKKCLVKNPEQRATATQLLQHPFIKNAKPVSILRDLITEAMEIKAKRHEEQQRELEEEEENSDEDELDSHTMVKTSVESVGTMRATSTMSEGAQTMIEHNSTMLESDLGTMVINSEDEEEEDGTMKRNATSPQVQRPSFMDYFDKQDFKNKSHENCNQNMHEPFPMSKNVFPDNWKVPQDGDFDFLKNLSLEELQMRLKALDPMMEREIEELRQRYTAKRQPILDAMDAKKRRQQNF
# partner: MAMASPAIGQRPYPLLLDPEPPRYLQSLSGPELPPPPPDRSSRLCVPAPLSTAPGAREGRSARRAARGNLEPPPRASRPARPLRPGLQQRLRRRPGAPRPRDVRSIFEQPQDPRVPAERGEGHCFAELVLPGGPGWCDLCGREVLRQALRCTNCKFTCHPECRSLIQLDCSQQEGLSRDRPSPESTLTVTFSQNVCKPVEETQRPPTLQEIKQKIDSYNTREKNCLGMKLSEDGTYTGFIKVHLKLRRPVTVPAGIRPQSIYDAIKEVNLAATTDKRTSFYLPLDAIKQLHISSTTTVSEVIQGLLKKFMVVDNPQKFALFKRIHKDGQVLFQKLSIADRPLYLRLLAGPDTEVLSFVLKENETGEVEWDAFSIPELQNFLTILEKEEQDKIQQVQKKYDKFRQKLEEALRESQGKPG
# Variants of: B1
# Conditions: with RASSF5, Q8WWW0-1
row,effect of a mutation on the interaction,Variant
1,decreasing interaction strength,MEQPPAPKSKLKKLSEDSLTKQPEEVFDVLEKLGEGSYGSVFKAIHKESGQVVAIKQVPVESDLQEIIKEISIMQQCDSPYVVKYYGSYFKNTDLWIVMEYCGAGSVSDIIRLRNKTLIEDEIATILKSTLKGLEYLHFMRKIHRDIKAGNILLNTEGHAKLADFGVAGQLTDTMAKRNTVIGTPFWMAPEVIQEIGYNCVADIWSLGITSIEMAEGKPPYADIHPMRAIFMIPTNPPPTFRKPELWSDDFTDFVKKCLVKNPEQRATATQLLQHPFIKNAKPVSILRDLITEAMEIKAKRHEEQQRELEEEEENSDEDELDSHTMVKTSVESVGTMRATSTMSEGAQTMIEHNSTMLESDLGTMVINSEDEEEEDGTMKRNATSPQVQRPSFMDYFDKQDFKNKSHENCNQNMHEPFPMSKNVFPDNWKVPQDGDFDFLKNLSLEELQMRLKALDPMMEREIEELRQRYTAARQPILDAMDAKKRRQQNF [K473A]
